Measured values reported in patent US20230391826A1, “COMPOSITIONS AND METHODS FOR TREATING DISEASES” (Sanford Burnham Prebys Medical Discovery Institute, priority 2020, published 2023).

What was measured:
[1] = molecular target: EphA2 extracellular domain fused to the Fc portion of an antibody (EphA2-Fc); assay: ELISA, inhibition of ephrinA5-AP binding to immobilized EphA2-Fc
[2] = molecular target: EphA2 extracellular domain fused to the Fc portion of an antibody (EphA2-Fc); assay: ELISA, inhibition of ephrinA5-AP binding to immobilized EphA2-Fc; representative experiment, triplicates
[3] = molecular target: EphA2 endogenously expressed on PC3 prostate cancer cells (UniProt P29317); assay: cell-based or functional assay
EphA2 endogenously expressed on PC3 prostate cancer cells, sequence (P29317 24-976 limits assumed): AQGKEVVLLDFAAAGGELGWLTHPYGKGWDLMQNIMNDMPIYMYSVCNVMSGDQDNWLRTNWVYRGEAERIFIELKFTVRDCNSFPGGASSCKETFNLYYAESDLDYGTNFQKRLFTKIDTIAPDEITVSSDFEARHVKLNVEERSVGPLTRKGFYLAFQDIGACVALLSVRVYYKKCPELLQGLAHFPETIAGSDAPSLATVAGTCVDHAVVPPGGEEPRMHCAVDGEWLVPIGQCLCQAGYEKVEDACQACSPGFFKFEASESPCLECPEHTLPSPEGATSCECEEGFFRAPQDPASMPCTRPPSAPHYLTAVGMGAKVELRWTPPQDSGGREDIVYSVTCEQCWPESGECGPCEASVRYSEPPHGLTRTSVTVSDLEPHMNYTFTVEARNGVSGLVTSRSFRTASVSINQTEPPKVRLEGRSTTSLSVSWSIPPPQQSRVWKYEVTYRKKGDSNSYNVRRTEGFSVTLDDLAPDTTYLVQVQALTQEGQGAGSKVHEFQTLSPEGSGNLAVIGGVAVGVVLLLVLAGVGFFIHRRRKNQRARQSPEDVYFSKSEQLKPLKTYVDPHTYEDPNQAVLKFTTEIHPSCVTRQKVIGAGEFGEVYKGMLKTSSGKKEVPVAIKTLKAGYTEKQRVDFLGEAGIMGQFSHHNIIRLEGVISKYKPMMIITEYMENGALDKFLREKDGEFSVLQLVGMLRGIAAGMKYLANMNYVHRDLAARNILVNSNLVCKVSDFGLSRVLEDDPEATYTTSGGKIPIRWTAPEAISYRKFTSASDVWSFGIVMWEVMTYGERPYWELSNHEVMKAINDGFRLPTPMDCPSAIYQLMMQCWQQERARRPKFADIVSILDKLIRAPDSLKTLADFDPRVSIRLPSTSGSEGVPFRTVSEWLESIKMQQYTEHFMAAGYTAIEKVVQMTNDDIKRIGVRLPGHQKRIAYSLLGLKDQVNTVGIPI

m-ephrinA1 (monomer) (ligand), sequence (P20827 19-182): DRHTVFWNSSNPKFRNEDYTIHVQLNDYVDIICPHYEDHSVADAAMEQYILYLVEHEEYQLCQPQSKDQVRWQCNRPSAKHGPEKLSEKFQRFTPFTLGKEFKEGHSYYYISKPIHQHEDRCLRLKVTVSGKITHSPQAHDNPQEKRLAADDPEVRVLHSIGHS

| IC50 [1] | IC50 [2] | Blig (bias factor) [3] | EC50 PY588 [3] | EC50 pAKT inhib [3] | EC50 pY588 [3] | Emax PY588 (normalized to ephrinA1-Fc) [3] | Etop pAKT inhib [3] | IC50 PAKT [3] | βlig (bias factor) [3] | Etop pY588 (normalized to ephrinA1-Fc) [3] | Substance |
| --- | --- | --- | --- | --- | --- | --- | --- | --- | --- | --- | --- |
| 0.4 nM | 0.49 nM | – | – | – | – | – | – | – | – | – | CGA-WLA-YRPKam dimer (N-ter) (peptide) |
| – | – | 0 | 0.81 nM | 1.7 nM | 3.8 nM | 1 | 1 | 0.62 nM | 0 | – | ephrinA1-Fc (dimer) (Fc fusion) |
| 21 nM | 19 nM | 0.3 | 28 nM | 27 nM | 74 nM | 0.74 | 1 | 13 nM | 0.54 | 0.36 | m-ephrinA1 (monomer) (ligand) |
